Assay [1] has as its system Tie2 receptor downstream signaling in HUVEC cells. The assay is described as follows: Western blot of AKT and ERK 42/44 phosphorylation (Tie2 downstream signaling) in HUVEC cells. Format: cell-based. Conditions: 60 nM anti-Ang2 antibody mixed with 40 nM Ang2, 10 minutes, FIG. 1. On the procedure: Ang2 binds to the Tie2 receptor expressed on vascular endothelial cells and acts as a weak agonist or antagonist. Since the anti-Ang2 antibody developed in the present invention binds to Ang2 and forms a complex with Ang2-Tie2, thereby activating the Tie2 receptor and promoting downstream signaling, ERK and AKT phosphorylation experiments were performed to analyze the effect of anti-Ang2 antibodies on Tie2 downstream signaling using a cell-based assay. To compare the degree of activation of Tie2 downstream signaling, the same test was performed on the group treated with Ang2 (Sino Biological) and another Ang2 control antibody (Korean Patent Publication No. 10-2015-0136031).
Specifically, HUVEC (Lonza) cells (2×10^5) were cultured at 37° C. using EGM-2 (Lonza) medium, and when 80-90% confluency was observed, they were changed to 0.5% FBS Basal media (Lonza) for […]. Cultured at 37° C. for […]. 60 nM of anti-Ang2 antibody was mixed with 40 nM of Ang2 protein (Sino Biological) and left for 30 minutes. Then, the cultured cells were treated and incubated for another 10 minutes. For comparison, groups treated with 40 nM Ang2 and 40 nM Ang2+60 nM anti-Ang2 control antibody were prepared. […]
On the technique in general: A western blot detects proteins with antibodies after separation by electrophoresis.

Assay [2] concerns Tie2 downstream signaling (AKT phosphorylation) in HUVEC cells. Briefly: Phospho-Akt1 (Ser473) sandwich ELISA of Tie2 downstream signaling in HUVEC cells. The class given is cell-based. Here is the method:
To quantitatively analyze the effect of anti-Ang2 antibodies on Tie2 downstream signaling, the level of AKT phosphorylation was measured using ELISA.
HUVEC (Lonza) cells (2×10^5) were cultured at 37° C. using EGM-2 (Lonza) medium, and when 80-90% confluency was observed, they were changed to 0.5% FBS Basal media (Lonza) and cultured at 37° C. for 16 to 24 hours. 60 nM of anti-Ang2 antibody was mixed with 40 nM of Ang2 protein (Sino Biological) and left for 30 minutes. Then, the cultured cells were treated and incubated for another 10 minutes. For comparison, groups treated with 40 nM of Ang2, 40 nM of Ang2+60 nM of anti-Ang2 control antibody (h10D6-OPTI-67, U.S. Pat. No. 10,934,350) were prepared. The cells were washed with PBS, treated with the lysis buffer, centrifuged at 13,000 rpm for 15 minutes, and the supernatant was recovered to obtain a cell lysate.
For ELISA, 50 μL of PathScan®Phospho-Akt1 (Ser473) Sandwich ELISA Antibody Pair (Cell signaling) capture antibody diluted 1:100 was added to a 96 well ps half area plate (Greiner cio-one) and coated. Then, the plate was washed four times with PBST (Phosphate Buffer Saline containing 0.05% (v/v) Tween-20) and then blocked with PBST containing 1% (v/v) skim milk at 37° C. for […]. […] Afterwards, 50 μL of Stop solution was added to stop the reaction, and the OD450 value was measured on a plate reader (BioTek).
(ELISA stands for enzyme-linked immunosorbent assay.)

B1: 1D3: mouse anti-Ang2 monoclonal antibody; CDRs SEQ ID NO: 18-23, VH SEQ ID NO: 24, VL SEQ ID NO: 25 (antibody, V domains shown)
VH: DVQLQESGPGLVKPSQSLSLTCTVTGYSITSDYGWNWIRQFPGNKLEWMGYISYSGTTSYNPSLKSRISITRDTSKNQFFLQLNSVTTEDTATYYCARSEGTGFYAMDYWGQGTSVTVSSAKTTPPKLY
VL: SIVMTQTPKFLLVSAGDRVTIICKASQSVSNDVAWYQQKPGQSPKLLIYYASNRYTGVPDRFTGSGYGTDFTFTISTVQAEDLAVYFCQQDYSSPTFGGGTKLEIKRA
modifications: VH; VL
B1: the “AKT and ERK activation signals (western blot) compared to the negative control group” value in assay [1] is “showed AKT and ERK activation signals”. The “Order of AKT phosphorylation curves in FIG. 2, from the curve with the highest value” in assay [2] (HUVEC cells together with Ang2, printed order 1D3, 2C8, 1A9, 1H10, control 67 clone) is “highest”. The “Tie2 downstream signal (AKT phosphorylation ELISA) compared to previously known control antibodies” value in assay [2] (HUVEC cells, antibody together with 40 nM Ang2, OD450, FIG. 2) is on record as “significantly stronger Tie2 downstream signal”.

The record behind these values is patent US20250340625A1, “ANTIBODY SPECIFICALLY BINDING TO ANGIOPOIETIN-2, OR FRAGMENT THEREOF” (NEORTESBIO INC., priority 2021, published 2025).
